The chains are these.
B1: FIXa-Y155F/K247N/N249S/R338E/T343R/R403E/E410N (protein)
chain 1: YNSGKLEEFVQGNLERECMEEKCSFEEAREVFENTERTTEFWKQYVDGDQCESNPCLNGGSCKDDINSYECWCPFGFEGKNCELDVTCNIKNGRCEQFCKNSADNKVVCSCTEGYRLAENQKSCEPAVPFPCGRVSVSQTSKLTR
chain 2: VVGGEDAKPGQFPWQVVLNGKVDAFCGGSIVNEKWIVTAAHCVETGVKITVVAGEHNIEETEHTEQNRSVIRIIPHHNYNAAINKYNHDIALLELDEPLVLNSYVTPICIADKEYTNIFLKFGSGYVSGWGRVFHKGRSALVLQYLRVPLVDRATCLESTKFRIYNNMFCAGFHEGGRDSCQGDSGGPHVTEVEGTSFLTGIISWGEECAMKGKYGIYTKVSEYVNWIKNKTKLT
B2: FIXa-Y155F/K247N/N249S/R318Y/R403E (protein)
chain 1: YNSGKLEEFVQGNLERECMEEKCSFEEAREVFENTERTTEFWKQYVDGDQCESNPCLNGGSCKDDINSYECWCPFGFEGKNCELDVTCNIKNGRCEQFCKNSADNKVVCSCTEGYRLAENQKSCEPAVPFPCGRVSVSQTSKLTR
chain 2: VVGGEDAKPGQFPWQVVLNGKVDAFCGGSIVNEKWIVTAAHCVETGVKITVVAGEHNIEETEHTEQNRSVIRIIPHHNYNAAINKYNHDIALLELDEPLVLNSYVTPICIADKEYTNIFLKFGSGYVSGWGRVFHKGYSALVLQYLRVPLVDRATCLRSTKFTIYNNMFCAGFHEGGRDSCQGDSGGPHVTEVEGTSFLTGIISWGEECAMKGKYGIYTKVSEYVNWIKEKTKLT
B3: FIXa-K247N/N249S/R318Y/T343R/R403E/E410N (protein)
chain 1: YNSGKLEEFVQGNLERECMEEKCSFEEAREVFENTERTTEFWKQYVDGDQCESNPCLNGGSCKDDINSYECWCPFGFEGKNCELDVTCNIKNGRCEQFCKNSADNKVVCSCTEGYRLAENQKSCEPAVPFPCGRVSVSQTSKLTR
chain 2: VVGGEDAKPGQFPWQVVLNGKVDAFCGGSIVNEKWIVTAAHCVETGVKITVVAGEHNIEETEHTEQNRSVIRIIPHHNYNAAINKYNHDIALLELDEPLVLNSYVTPICIADKEYTNIFLKFGSGYVSGWGRVFHKGYSALVLQYLRVPLVDRATCLRSTKFRIYNNMFCAGFHEGGRDSCQGDSGGPHVTEVEGTSFLTGIISWGEECAMKGKYGIYTKVSEYVNWIKNKTKLT
B4: FIXa-K247N/N249S/R338E/T343R/R403E/E410N (protein)
chain 1: YNSGKLEEFVQGNLERECMEEKCSFEEAREVFENTERTTEFWKQYVDGDQCESNPCLNGGSCKDDINSYECWCPFGFEGKNCELDVTCNIKNGRCEQFCKNSADNKVVCSCTEGYRLAENQKSCEPAVPFPCGRVSVSQTSKLTR
chain 2: VVGGEDAKPGQFPWQVVLNGKVDAFCGGSIVNEKWIVTAAHCVETGVKITVVAGEHNIEETEHTEQNRSVIRIIPHHNYNAAINKYNHDIALLELDEPLVLNSYVTPICIADKEYTNIFLKFGSGYVSGWGRVFHKGRSALVLQYLRVPLVDRATCLESTKFRIYNNMFCAGFHEGGRDSCQGDSGGPHVTEVEGTSFLTGIISWGEECAMKGKYGIYTKVSEYVNWIKNKTKLT
B5: FIXa-Y155F/K247N/N249S/R318Y/T343R/R403E/E410N (protein)
chain 1: YNSGKLEEFVQGNLERECMEEKCSFEEAREVFENTERTTEFWKQYVDGDQCESNPCLNGGSCKDDINSYECWCPFGFEGKNCELDVTCNIKNGRCEQFCKNSADNKVVCSCTEGYRLAENQKSCEPAVPFPCGRVSVSQTSKLTR
chain 2: VVGGEDAKPGQFPWQVVLNGKVDAFCGGSIVNEKWIVTAAHCVETGVKITVVAGEHNIEETEHTEQNRSVIRIIPHHNYNAAINKYNHDIALLELDEPLVLNSYVTPICIADKEYTNIFLKFGSGYVSGWGRVFHKGYSALVLQYLRVPLVDRATCLRSTKFRIYNNMFCAGFHEGGRDSCQGDSGGPHVTEVEGTSFLTGIISWGEECAMKGKYGIYTKVSEYVNWIKNKTKLT
B6: FIXa-Y155F/K247N/N249S/R338E/R403E (protein)
chain 1: YNSGKLEEFVQGNLERECMEEKCSFEEAREVFENTERTTEFWKQYVDGDQCESNPCLNGGSCKDDINSYECWCPFGFEGKNCELDVTCNIKNGRCEQFCKNSADNKVVCSCTEGYRLAENQKSCEPAVPFPCGRVSVSQTSKLTR
chain 2: VVGGEDAKPGQFPWQVVLNGKVDAFCGGSIVNEKWIVTAAHCVETGVKITVVAGEHNIEETEHTEQNRSVIRIIPHHNYNAAINKYNHDIALLELDEPLVLNSYVTPICIADKEYTNIFLKFGSGYVSGWGRVFHKGRSALVLQYLRVPLVDRATCLESTKFTIYNNMFCAGFHEGGRDSCQGDSGGPHVTEVEGTSFLTGIISWGEECAMKGKYGIYTKVSEYVNWIKEKTKLT
B7: FIXa-Y155F/K247N/N249S/R318Y/E410N (protein)
chain 1: YNSGKLEEFVQGNLERECMEEKCSFEEAREVFENTERTTEFWKQYVDGDQCESNPCLNGGSCKDDINSYECWCPFGFEGKNCELDVTCNIKNGRCEQFCKNSADNKVVCSCTEGYRLAENQKSCEPAVPFPCGRVSVSQTSKLTR
chain 2: VVGGEDAKPGQFPWQVVLNGKVDAFCGGSIVNEKWIVTAAHCVETGVKITVVAGEHNIEETEHTEQNRSVIRIIPHHNYNAAINKYNHDIALLELDEPLVLNSYVTPICIADKEYTNIFLKFGSGYVSGWGRVFHKGYSALVLQYLRVPLVDRATCLRSTKFTIYNNMFCAGFHEGGRDSCQGDSGGPHVTEVEGTSFLTGIISWGEECAMKGKYGIYTKVSRYVNWIKNKTKLT
B8: FIXa-Y155F/K247N/N249S/R338E/E410N (protein)
chain 1: YNSGKLEEFVQGNLERECMEEKCSFEEAREVFENTERTTEFWKQYVDGDQCESNPCLNGGSCKDDINSYECWCPFGFEGKNCELDVTCNIKNGRCEQFCKNSADNKVVCSCTEGYRLAENQKSCEPAVPFPCGRVSVSQTSKLTR
chain 2: VVGGEDAKPGQFPWQVVLNGKVDAFCGGSIVNEKWIVTAAHCVETGVKITVVAGEHNIEETEHTEQNRSVIRIIPHHNYNAAINKYNHDIALLELDEPLVLNSYVTPICIADKEYTNIFLKFGSGYVSGWGRVFHKGRSALVLQYLRVPLVDRATCLESTKFTIYNNMFCAGFHEGGRDSCQGDSGGPHVTEVEGTSFLTGIISWGEECAMKGKYGIYTKVSRYVNWIKNKTKLT
B9: FIXa-Y155F/K247N/N249S/R318Y/T343R (protein)
chain 1: YNSGKLEEFVQGNLERECMEEKCSFEEAREVFENTERTTEFWKQYVDGDQCESNPCLNGGSCKDDINSYECWCPFGFEGKNCELDVTCNIKNGRCEQFCKNSADNKVVCSCTEGYRLAENQKSCEPAVPFPCGRVSVSQTSKLTR
chain 2: VVGGEDAKPGQFPWQVVLNGKVDAFCGGSIVNEKWIVTAAHCVETGVKITVVAGEHNIEETEHTEQNRSVIRIIPHHNYNAAINKYNHDIALLELDEPLVLNSYVTPICIADKEYTNIFLKFGSGYVSGWGRVFHKGYSALVLQYLRVPLVDRATCLRSTKFRIYNNMFCAGFHEGGRDSCQGDSGGPHVTEVEGTSFLTGIISWGEECAMKGKYGIYTKVSRYVNWIKEKTKLT
B10: FIXa-Y155F/K247N/N249S/R318Y/R338E (protein)
chain 1: YNSGKLEEFVQGNLERECMEEKCSFEEAREVFENTERTTEFWKQYVDGDQCESNPCLNGGSCKDDINSYECWCPFGFEGKNCELDVTCNIKNGRCEQFCKNSADNKVVCSCTEGYRLAENQKSCEPAVPFPCGRVSVSQTSKLTR
chain 2: VVGGEDAKPGQFPWQVVLNGKVDAFCGGSIVNEKWIVTAAHCVETGVKITVVAGEHNIEETEHTEQNRSVIRIIPHHNYNAAINKYNHDIALLELDEPLVLNSYVTPICIADKEYTNIFLKFGSGYVSGWGRVFHKGYSALVLQYLRVPLVDRATCLESTKFTIYNNMFCAGFHEGGRDSCQGDSGGPHVTEVEGTSFLTGIISWGEECAMKGKYGIYTKVSRYVNWIKEKTKLT
B11: FIXa-Y155F/K247N/N249S/R338E/T343R (protein)
chain 1: YNSGKLEEFVQGNLERECMEEKCSFEEAREVFENTERTTEFWKQYVDGDQCESNPCLNGGSCKDDINSYECWCPFGFEGKNCELDVTCNIKNGRCEQFCKNSADNKVVCSCTEGYRLAENQKSCEPAVPFPCGRVSVSQTSKLTR
chain 2: VVGGEDAKPGQFPWQVVLNGKVDAFCGGSIVNEKWIVTAAHCVETGVKITVVAGEHNIEETEHTEQNRSVIRIIPHHNYNAAINKYNHDIALLELDEPLVLNSYVTPICIADKEYTNIFLKFGSGYVSGWGRVFHKGRSALVLQYLRVPLVDRATCLESTKFRIYNNMFCAGFHEGGRDSCQGDSGGPHVTEVEGTSFLTGIISWGEECAMKGKYGIYTKVSRYVNWIKEKTKLT
B12: FIXa-Y155F/K247N/N249S/R318Y/T343R/R403E (protein)
chain 1: YNSGKLEEFVQGNLERECMEEKCSFEEAREVFENTERTTEFWKQYVDGDQCESNPCLNGGSCKDDINSYECWCPFGFEGKNCELDVTCNIKNGRCEQFCKNSADNKVVCSCTEGYRLAENQKSCEPAVPFPCGRVSVSQTSKLTR
chain 2: VVGGEDAKPGQFPWQVVLNGKVDAFCGGSIVNEKWIVTAAHCVETGVKITVVAGEHNIEETEHTEQNRSVIRIIPHHNYNAAINKYNHDIALLELDEPLVLNSYVTPICIADKEYTNIFLKFGSGYVSGWGRVFHKGYSALVLQYLRVPLVDRATCLRSTKFRIYNNMFCAGFHEGGRDSCQGDSGGPHVTEVEGTSFLTGIISWGEECAMKGKYGIYTKVSEYVNWIKEKTKLT
B13: FIXa-K247N/N249S/R318Y/R338E/T343R/E410N (protein)
chain 1: YNSGKLEEFVQGNLERECMEEKCSFEEAREVFENTERTTEFWKQYVDGDQCESNPCLNGGSCKDDINSYECWCPFGFEGKNCELDVTCNIKNGRCEQFCKNSADNKVVCSCTEGYRLAENQKSCEPAVPFPCGRVSVSQTSKLTR
chain 2: VVGGEDAKPGQFPWQVVLNGKVDAFCGGSIVNEKWIVTAAHCVETGVKITVVAGEHNIEETEHTEQNRSVIRIIPHHNYNAAINKYNHDIALLELDEPLVLNSYVTPICIADKEYTNIFLKFGSGYVSGWGRVFHKGYSALVLQYLRVPLVDRATCLESTKFRIYNNMFCAGFHEGGRDSCQGDSGGPHVTEVEGTSFLTGIISWGEECAMKGKYGIYTKVSRYVNWIKNKTKLT
B14: FIXa-Y155F/K247N/N249S/R318Y/R338E/T343R/E410N (protein)
chain 1: YNSGKLEEFVQGNLERECMEEKCSFEEAREVFENTERTTEFWKQYVDGDQCESNPCLNGGSCKDDINSYECWCPFGFEGKNCELDVTCNIKNGRCEQFCKNSADNKVVCSCTEGYRLAENQKSCEPAVPFPCGRVSVSQTSKLTR
chain 2: VVGGEDAKPGQFPWQVVLNGKVDAFCGGSIVNEKWIVTAAHCVETGVKITVVAGEHNIEETEHTEQNRSVIRIIPHHNYNAAINKYNHDIALLELDEPLVLNSYVTPICIADKEYTNIFLKFGSGYVSGWGRVFHKGYSALVLQYLRVPLVDRATCLESTKFRIYNNMFCAGFHEGGRDSCQGDSGGPHVTEVEGTSFLTGIISWGEECAMKGKYGIYTKVSRYVNWIKNKTKLT

Drawing on patent US20210230570, this text covers kcat and kcat/KM for 14 proteins.

A word on the kcat: it is the maximal rate divided by the concentration of active sites. The kcat/KM is the second-order rate constant that governs catalysis at low substrate concentration.

This data set deals with Factor X (FX), P00742.
Chain of Factor X (FX), P00742 (P00742 whole entry, looked up): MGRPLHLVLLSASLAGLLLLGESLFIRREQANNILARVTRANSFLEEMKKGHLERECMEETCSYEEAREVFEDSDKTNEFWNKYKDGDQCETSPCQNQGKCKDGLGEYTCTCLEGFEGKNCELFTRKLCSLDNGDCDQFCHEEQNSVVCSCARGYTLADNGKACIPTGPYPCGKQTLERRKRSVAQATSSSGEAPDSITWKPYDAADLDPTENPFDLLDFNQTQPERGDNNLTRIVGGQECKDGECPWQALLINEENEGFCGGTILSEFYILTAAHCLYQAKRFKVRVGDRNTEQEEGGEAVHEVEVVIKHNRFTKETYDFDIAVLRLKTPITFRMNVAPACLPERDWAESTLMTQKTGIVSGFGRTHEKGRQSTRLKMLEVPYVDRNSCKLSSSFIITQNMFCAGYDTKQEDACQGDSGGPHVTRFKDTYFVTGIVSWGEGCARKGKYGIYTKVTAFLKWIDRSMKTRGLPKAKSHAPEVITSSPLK
For B1, the kcat was 9.8 s⁻¹. Still for that read-out and setting: with B2 the figure was 1.7 s⁻¹. Turning to B3, the kcat worked out at 9.5 s⁻¹ and the catalytic efficiency (kcat/KM) was found to be 1.3e+08 M⁻¹ s⁻¹. Consider B4, for which the kcat stood at 10.8 s⁻¹. For B5, the kcat is 9 s⁻¹ and the catalytic efficiency (kcat/KM) turned out to be 1.6e+08 M⁻¹ s⁻¹. On the same counts, the results for B6 are 5.3 s⁻¹ and 1.4e+08 M⁻¹ s⁻¹. In the case of B7, the kcat came to 3.4 s⁻¹. In the case of B8, the kcat came to 7.3 s⁻¹ and the kcat/KM was 4.7e+08 M⁻¹ s⁻¹.

In the case of B9, the kcat came out at 10.3 s⁻¹. On the same count and under the same terms, as for B10, the figure is 7.5 s⁻¹. Regarding B11, the kcat came out at 10.6 s⁻¹ and the kcat/KM was 7.3e+08 M⁻¹ s⁻¹. B12: the kcat was found to be 7.5 s⁻¹ and the kcat/KM amounted to 1.3e+08 M⁻¹ s⁻¹. For B13, the kcat turned out to be 8.8 s⁻¹ and the kcat/KM turned out to be 3.2e+08 M⁻¹ s⁻¹. On the same counts, the results for B14 are 7.7 s⁻¹ and 5e+08 M⁻¹ s⁻¹.
